Measurements: patent US20210024630A1 (SYSTIMMUNE, published 2021)

Key:
human 4-1BB = molecular target: T1, human 4-1BB (human, UniProt Q07011 24-255); experiment: flow cytometry (FACS) on human 41BB transfected CHO cells
T1 construct: whole, on cells; also called human 41BB transfected CHO cells
Procedure: (§1) The tetra-specific GNC antibodies listed in TABLEs 3 and 4 were tested for binding to Chinese hamster ovary cells (CHO) cells stably expressing a full-length human ROR1. Antibodies were prepared at 2× final concentration and titrated 1:5 across 3 wells of a 96 well plate in 50 ul of PBS/2% FBS and then 5,000 ROR1-CHO cells in 50 ul PBS/2% FBS were added. This mixture was incubated for 30 minutes on ice, washed once with 200 ul PBS/2% FBS, and then the secondary antibody PE Goat anti-Human IgG Fc at 1:1000 dilution of stock was added, and this mixture was incubated for 30 minutes on ice. Cells were washed 2×200 ul PBS/2% FBS, resuspended in 50 ul PBS/2% FBS and analyzed on a BD LSRFORTESSA and the binding profile is shown in FIG. 5. All of the tetra-specific GNC antibodies except for the control SI-27E12 contain a 41BB binding domain, 460C3, 420H5, or 466F6 and bound to 41BB expressing CHO cells with varying intensity.

human PD-L1 = molecular target: T2, human PD-L1 (human, UniProt Q9NZQ7 19-290); experiment: flow cytometry (FACS) on human PDL1 transfected CHO cells
T2 construct: whole, on cells; also called human PDL1 transfected CHO cells
T2 sequence (Q9NZQ7 19-290): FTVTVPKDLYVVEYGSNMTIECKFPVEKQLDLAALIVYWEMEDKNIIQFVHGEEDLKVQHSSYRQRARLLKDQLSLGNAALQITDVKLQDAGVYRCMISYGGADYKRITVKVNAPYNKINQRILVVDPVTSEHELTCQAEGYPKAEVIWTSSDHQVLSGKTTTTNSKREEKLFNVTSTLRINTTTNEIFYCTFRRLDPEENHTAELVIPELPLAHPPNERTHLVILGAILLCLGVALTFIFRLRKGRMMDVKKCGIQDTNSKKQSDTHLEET

human ROR1 = molecular target: T3, human ROR1 (human, UniProt Q01973 30-937); experiment: flow cytometry (FACS) on CHO cells stably expressing full-length human ROR1
T3 construct: whole, on cells; also called full-length human ROR1 on CHO cells; ROR1-CHO
T3 sequence (Q01973 30-937): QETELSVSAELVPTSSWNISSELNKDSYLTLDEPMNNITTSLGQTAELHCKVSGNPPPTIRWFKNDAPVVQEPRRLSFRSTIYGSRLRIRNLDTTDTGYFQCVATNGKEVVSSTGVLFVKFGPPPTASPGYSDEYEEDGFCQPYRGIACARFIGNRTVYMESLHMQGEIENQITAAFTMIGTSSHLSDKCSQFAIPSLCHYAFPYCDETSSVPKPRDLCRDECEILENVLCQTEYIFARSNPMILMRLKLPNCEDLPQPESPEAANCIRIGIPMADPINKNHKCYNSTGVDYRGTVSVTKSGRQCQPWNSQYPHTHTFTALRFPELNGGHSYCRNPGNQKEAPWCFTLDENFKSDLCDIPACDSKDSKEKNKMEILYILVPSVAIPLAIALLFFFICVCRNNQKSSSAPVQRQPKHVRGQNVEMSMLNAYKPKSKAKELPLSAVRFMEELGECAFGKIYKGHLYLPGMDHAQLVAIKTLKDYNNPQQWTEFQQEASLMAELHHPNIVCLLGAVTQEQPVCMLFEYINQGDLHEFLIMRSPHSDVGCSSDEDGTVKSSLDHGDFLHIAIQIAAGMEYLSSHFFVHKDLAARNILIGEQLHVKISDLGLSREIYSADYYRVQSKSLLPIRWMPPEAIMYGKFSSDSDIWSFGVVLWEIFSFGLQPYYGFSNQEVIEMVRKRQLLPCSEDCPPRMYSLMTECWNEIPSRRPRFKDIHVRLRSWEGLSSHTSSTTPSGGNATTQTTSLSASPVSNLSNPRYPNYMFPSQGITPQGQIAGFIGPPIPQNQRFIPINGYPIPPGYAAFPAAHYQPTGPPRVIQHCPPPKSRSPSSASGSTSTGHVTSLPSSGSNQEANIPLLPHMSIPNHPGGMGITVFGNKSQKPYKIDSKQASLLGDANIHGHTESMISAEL
Procedure: as §1, with “4.” for “5. All of the tetra-specific GNC antibodies except for the control SI-27E12 contain a 41BB binding domain, 460C3, 420H5, or 466F6 and bound to 41BB expressing CHO cells with varying intensity.”

T1 sequence (Q07011 24-255): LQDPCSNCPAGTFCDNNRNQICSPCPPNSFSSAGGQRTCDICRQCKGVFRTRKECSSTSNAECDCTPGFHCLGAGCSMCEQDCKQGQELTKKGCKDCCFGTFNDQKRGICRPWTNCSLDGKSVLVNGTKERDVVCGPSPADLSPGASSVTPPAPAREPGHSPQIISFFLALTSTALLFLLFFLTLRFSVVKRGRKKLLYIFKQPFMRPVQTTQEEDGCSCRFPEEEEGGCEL

binding result (human 4-1BB)	binding result (human PD-L1)	binding result (human ROR1)	Binder
binds	binds	binds	SI-35E18 (460C3-L1H1-scFv x PL230C6-Fab x 323H7-H4L1-scFv x 284A10-H1L1-scFv) (antibody, Tetra-specific (4-1BB x PD-L1 x ROR1 x CD3) antibody with human IgG1 null2 Fc; also called tetra-specific GNC antibody) heavy: not shown light: AYDMTQSPSSVSASVGDRVTIKCQASEDIYSFLAWYQQKPGKAPKLLIHSASSLASGVPSRFSGSGSGTDFTLTISSLQPEDFATYYCQQGYGKNNVDNAFGGGTKVEIKRTVAAPSVFIFPPSDEQLKSGTASVVCLLNNFYPREAKVQWKVDNALQSGNSQESVTEQDSKDSTYSLSSTLTLSKADYEKHKVYACEVTHQGLSSPVTKSFNRGEC
binds	binds	binds	SI-35E20 (466F6-L5H2-scFv x PL230C6-Fab x 323H7-H4L1-scFv x 284A10-H1L1-scFv) (antibody, Tetra-specific (4-1BB x PD-L1 x ROR1 x CD3) antibody with human IgG1 null2 Fc; also called tetra-specific GNC antibody) heavy: not shown light: AYDMTQSPSSVSASVGDRVTIKCQASEDIYSFLAWYQQKPGKAPKLLIHSASSLASGVPSRFSGSGSGTDFTLTISSLQPEDFATYYCQQGYGKNNVDNAFGGGTKVEIKRTVAAPSVFIFPPSDEQLKSGTASVVCLLNNFYPREAKVQWKVDNALQSGNSQESVTEQDSKDSTYSLSSTLTLSKADYEKHKVYACEVTHQGLSSPVTKSFNRGEC
